Measurements published in patent publication US20080014191A1.
Blank lines part the entries; values can stand above or below the substance they belong to.

Key:
[1] = target: ΔF508 CFTR (Homo sapiens (Human)) (UniProt P13569); test: CFTR co-IP, MudPIT MS; ΔF508
[2] = target: wild-type cystic fibrosis transmembrane conductance regulator (CFTR) (Homo sapiens (Human)) (UniProt P13569); test: CFTR co-IP, MudPIT MS; cell line not stated
[3] = target: wild-type cystic fibrosis transmembrane conductance regulator (CFTR) (Homo sapiens (Human)) (UniProt P13569); test: CFTR co-IP, MudPIT MS; BHK wt, Calu-3, HT29, T84
[4] = target: ΔF508 CFTR (Homo sapiens (Human)) (UniProt P13569); test: CFTR co-IP and Hsp90 immunoblot; HEK293 ΔF508 cells, ~60% knock-down of Aha1
[5] = target: wild-type cystic fibrosis transmembrane conductance regulator (CFTR) (Homo sapiens (Human)) (UniProt P13569); test: CFTR co-IP, MudPIT MS; HT29 cells
[6] = target: wild-type cystic fibrosis transmembrane conductance regulator (CFTR) (Homo sapiens (Human)) (UniProt P13569); test: CFTR co-IP, MudPIT MS; Calu-3 cells
[7] = target: wild-type cystic fibrosis transmembrane conductance regulator (CFTR) (Homo sapiens (Human)) (UniProt P13569); test: CFTR co-IP, MudPIT MS; BHK wt
[8] = target: ΔF508 CFTR (Homo sapiens (Human)) (UniProt P13569); test: CFTR co-IP, MudPIT MS; BHK ΔF508
[9] = target: wild-type cystic fibrosis transmembrane conductance regulator (CFTR) (Homo sapiens (Human)) (UniProt P13569); test: CFTR co-IP, MudPIT MS; BHK cells

Sequence of ΔF508 CFTR (Homo sapiens (Human)) (P13569 other isoform, or with tags, fused parts or gaps mutant limits assumed): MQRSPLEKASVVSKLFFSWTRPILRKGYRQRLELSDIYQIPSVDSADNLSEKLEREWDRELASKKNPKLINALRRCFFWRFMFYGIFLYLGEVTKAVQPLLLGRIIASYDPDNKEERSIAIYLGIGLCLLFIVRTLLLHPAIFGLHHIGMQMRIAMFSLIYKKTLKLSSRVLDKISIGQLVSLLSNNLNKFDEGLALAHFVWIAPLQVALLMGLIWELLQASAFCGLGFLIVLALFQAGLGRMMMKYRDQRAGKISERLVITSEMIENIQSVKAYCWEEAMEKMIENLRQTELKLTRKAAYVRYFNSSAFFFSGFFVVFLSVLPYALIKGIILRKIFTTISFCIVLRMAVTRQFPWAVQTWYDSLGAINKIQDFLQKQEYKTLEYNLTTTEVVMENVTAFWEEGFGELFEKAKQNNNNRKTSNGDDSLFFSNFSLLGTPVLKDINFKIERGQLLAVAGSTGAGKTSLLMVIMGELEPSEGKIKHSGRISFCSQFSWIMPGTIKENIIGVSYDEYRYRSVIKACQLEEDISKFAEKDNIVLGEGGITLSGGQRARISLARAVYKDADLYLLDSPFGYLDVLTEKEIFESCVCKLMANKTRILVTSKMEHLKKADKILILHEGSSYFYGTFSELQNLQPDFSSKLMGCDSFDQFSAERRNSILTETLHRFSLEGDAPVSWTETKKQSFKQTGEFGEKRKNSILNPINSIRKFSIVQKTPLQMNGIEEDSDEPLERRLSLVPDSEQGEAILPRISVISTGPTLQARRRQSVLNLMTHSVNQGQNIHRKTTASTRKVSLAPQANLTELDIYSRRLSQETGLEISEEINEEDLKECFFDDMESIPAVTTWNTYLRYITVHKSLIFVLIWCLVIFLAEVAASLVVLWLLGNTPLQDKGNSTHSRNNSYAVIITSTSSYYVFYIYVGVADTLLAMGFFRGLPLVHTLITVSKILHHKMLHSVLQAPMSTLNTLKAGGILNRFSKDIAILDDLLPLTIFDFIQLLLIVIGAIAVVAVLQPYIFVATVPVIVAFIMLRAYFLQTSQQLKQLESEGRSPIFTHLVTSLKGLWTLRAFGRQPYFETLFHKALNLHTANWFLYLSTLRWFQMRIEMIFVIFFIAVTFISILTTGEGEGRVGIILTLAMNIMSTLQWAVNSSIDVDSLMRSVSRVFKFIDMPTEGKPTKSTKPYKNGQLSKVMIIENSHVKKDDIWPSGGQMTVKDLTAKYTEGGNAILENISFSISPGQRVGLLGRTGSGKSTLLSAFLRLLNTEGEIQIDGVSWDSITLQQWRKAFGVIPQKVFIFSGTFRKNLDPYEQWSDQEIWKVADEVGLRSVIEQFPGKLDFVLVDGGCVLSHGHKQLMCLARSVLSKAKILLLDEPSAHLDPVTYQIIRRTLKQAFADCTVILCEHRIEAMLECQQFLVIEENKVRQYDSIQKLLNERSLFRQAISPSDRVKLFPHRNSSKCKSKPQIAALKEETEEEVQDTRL
Sequence of wild-type cystic fibrosis transmembrane conductance regulator (CFTR) (Homo sapiens (Human)) (P13569 whole entry): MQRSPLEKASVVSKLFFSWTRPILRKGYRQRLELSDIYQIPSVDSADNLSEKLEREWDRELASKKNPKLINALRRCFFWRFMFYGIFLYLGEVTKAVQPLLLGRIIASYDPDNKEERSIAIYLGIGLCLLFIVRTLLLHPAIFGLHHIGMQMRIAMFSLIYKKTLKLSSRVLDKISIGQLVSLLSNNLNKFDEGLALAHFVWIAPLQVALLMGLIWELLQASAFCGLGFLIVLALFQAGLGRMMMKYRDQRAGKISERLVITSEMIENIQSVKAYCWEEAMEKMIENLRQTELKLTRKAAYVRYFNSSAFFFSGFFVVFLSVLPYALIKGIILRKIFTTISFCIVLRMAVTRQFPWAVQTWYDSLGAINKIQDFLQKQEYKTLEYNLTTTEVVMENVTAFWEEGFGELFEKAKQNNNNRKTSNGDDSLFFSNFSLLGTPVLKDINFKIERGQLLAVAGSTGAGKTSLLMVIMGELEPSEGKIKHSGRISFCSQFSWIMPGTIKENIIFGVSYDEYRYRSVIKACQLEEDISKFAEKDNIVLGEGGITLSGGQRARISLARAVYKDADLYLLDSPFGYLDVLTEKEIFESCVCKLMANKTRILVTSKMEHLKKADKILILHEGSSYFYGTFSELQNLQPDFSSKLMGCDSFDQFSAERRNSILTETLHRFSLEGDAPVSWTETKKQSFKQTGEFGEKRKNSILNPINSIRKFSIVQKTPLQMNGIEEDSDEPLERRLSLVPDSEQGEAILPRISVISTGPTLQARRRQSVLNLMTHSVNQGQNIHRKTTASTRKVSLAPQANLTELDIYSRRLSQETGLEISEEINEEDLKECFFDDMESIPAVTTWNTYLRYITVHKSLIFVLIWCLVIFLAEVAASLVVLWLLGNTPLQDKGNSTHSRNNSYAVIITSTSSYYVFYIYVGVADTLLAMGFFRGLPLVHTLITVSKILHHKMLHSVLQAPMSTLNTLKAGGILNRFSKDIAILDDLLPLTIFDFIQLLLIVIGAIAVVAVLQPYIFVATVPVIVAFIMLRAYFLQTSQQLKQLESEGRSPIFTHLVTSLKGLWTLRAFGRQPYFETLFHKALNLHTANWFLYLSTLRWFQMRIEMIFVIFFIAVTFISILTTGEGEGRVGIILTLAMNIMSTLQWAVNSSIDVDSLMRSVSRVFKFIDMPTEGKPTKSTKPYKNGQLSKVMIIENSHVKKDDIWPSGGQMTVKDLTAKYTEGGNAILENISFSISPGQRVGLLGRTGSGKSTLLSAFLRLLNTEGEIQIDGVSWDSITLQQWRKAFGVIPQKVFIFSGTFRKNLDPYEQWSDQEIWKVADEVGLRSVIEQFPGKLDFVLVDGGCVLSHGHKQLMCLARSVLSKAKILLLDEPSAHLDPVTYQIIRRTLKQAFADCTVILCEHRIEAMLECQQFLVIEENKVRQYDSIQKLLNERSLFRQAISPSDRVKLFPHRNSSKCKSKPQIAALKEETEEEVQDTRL

Substance: sorting nexin 4 (from UniProt O95219 1-450)
- % sequence coverage [2]: 3%
- total peptide spectra [2]: 5 spectra
- unique peptide spectra [2]: 3 spectra

Substance: proteasome 26S, ATPase, 4 (from UniProt P43686 1-418)
- % sequence coverage [1]: 12%
- total peptide spectra [1]: 3 spectra
- unique peptide spectra [1]: 2 spectra

Substance: RalBP1 associated Eps domain containing protein (Reps1) (from UniProt O54916 1-795)
- % sequence coverage [2]: 6%
- total peptide spectra [2]: 2 spectra
- unique peptide spectra [2]: 2 spectra

Substance: proteasome 26S, ATPase 3 (from UniProt O88685 1-442)
- % sequence coverage [1]: 8%
- total peptide spectra [1]: 3 spectra
- unique peptide spectra [1]: 2 spectra

Substance: VCP (RefSeq NM_009503) (from UniProt Q01853 2-806)
- % sequence coverage [2]: 7%
- total peptide spectra [2]: 2 spectra
- unique peptide spectra [2]: 2 spectra

Substance: sorting nexin 9 (from UniProt Q9Y5X1 1-595)
- % sequence coverage [2]: 5%
- total peptide spectra [2]: 2 spectra
- unique peptide spectra [2]: 2 spectra

Substance: enthoprotin (from UniProt Q14677 1-625)
- % sequence coverage [2]: 9%
- total peptide spectra [2]: 5 spectra
- unique peptide spectra [2]: 4 spectra

Substance: proteasome 26S, non-ATPase, 2 (from UniProt Q13200 1-908)
- % sequence coverage [1]: 13%
- total peptide spectra [1]: 8 spectra
- unique peptide spectra [1]: 7 spectra
- % sequence coverage [3]: 4%
- total peptide spectra [3]: 2 spectra
- unique peptide spectra [3]: 2 spectra

Substance: ARF4 (from UniProt P61750 2-180)
- % sequence coverage [2]: 16%
- total peptide spectra [2]: 4 spectra
- unique peptide spectra [2]: 2 spectra

Substance: ubiquitin specific protease 9 (from UniProt Q93008 1-2554) (enzyme)
- % sequence coverage [3]: 1%
- total peptide spectra [3]: 3 spectra
- unique peptide spectra [3]: 2 spectra

Substance: VPS 4A (from UniProt Q9UN37 1-437)
- % sequence coverage [2]: 5%
- total peptide spectra [2]: 2 spectra
- unique peptide spectra [2]: 2 spectra

Substance: CLCA1 (from UniProt A8K7I4 22-914)
- % sequence coverage [2]: 2%
- total peptide spectra [2]: 2 spectra
- unique peptide spectra [2]: 2 spectra

Substance: NHERF-2 (from UniProt Q15599 1-337)
- % sequence coverage [5]: 20%
- total peptide spectra [5]: 10 spectra
- unique peptide spectra [5]: 7 spectra
- % sequence coverage [6]: 14%
- total peptide spectra [6]: 5 spectra
- unique peptide spectra [6]: 4 spectra

Substance: Sec61, alpha subunit 2 (from UniProt Q9H9S3 1-476)
- % sequence coverage [3]: 11%
- total peptide spectra [3]: 2 spectra
- unique peptide spectra [3]: 2 spectra

Substance: NHERF-1 (from UniProt O14745 2-358)
- % sequence coverage [9]: 20%
- total peptide spectra [9]: 6 spectra
- unique peptide spectra [9]: 5 spectra
- % sequence coverage [5]: 11%
- total peptide spectra [5]: 2 spectra
- unique peptide spectra [5]: 2 spectra

Substance: disabled homolog 2 (Dab2) (from UniProt P98078 2-766)
- % sequence coverage [2]: 5%
- total peptide spectra [2]: 3 spectra
- unique peptide spectra [2]: 3 spectra

Substance: VCP/p97/Cdc48 (from UniProt P55072 2-806)
- % sequence coverage [1]: 25%
- total peptide spectra [1]: 14 spectra
- unique peptide spectra [1]: 10 spectra
- % sequence coverage [3]: 7%
- total peptide spectra [3]: 2 spectra
- unique peptide spectra [3]: 2 spectra

Substance: Hsp90β (from UniProt P11499 2-724)
- % sequence coverage [7]: 21%
- total spectra [7]: 18 spectra
- unique spectra [7]: 11 spectra
- % sequence coverage [8]: 36%
- total spectra [8]: 49 spectra
- unique spectra [8]: 24 spectra

Substance: βCOP (from UniProt P53618 2-953)
- % sequence coverage [2]: 5%
- total peptide spectra [2]: 2 spectra
- unique peptide spectra [2]: 2 spectra

Substance: clathrin, light chain (from UniProt O08585 1-235)
- % sequence coverage [2]: 13%
- total peptide spectra [2]: 11 spectra
- unique peptide spectra [2]: 3 spectra

Substance: ubiquitin protein ligase E3A (from UniProt Q05086 1-875) (enzyme)
- % sequence coverage [3]: 6%
- total peptide spectra [3]: 2 spectra
- unique peptide spectra [3]: 2 spectra

Substance: Hsp90, alpha (from UniProt P07900 2-732)
- % sequence coverage [7]: 6%
- total spectra [7]: 5 spectra
- unique spectra [7]: 4 spectra
- % sequence coverage [8]: 39%
- total spectra [8]: 37 spectra
- unique spectra [8]: 24 spectra

Further lines, results first:

- % sequence coverage [1]: 23%
- total peptide spectra [1]: 3 spectra
- unique peptide spectra [1]: 3 spectra
Substance: proteasome, alpha type 5 (from UniProt Q9Z2U1 1-241)

- % sequence coverage [2]: 1%
- total peptide spectra [2]: 12 spectra
- unique peptide spectra [2]: 1 spectra
Substance: sortilin-related receptor L (SORL1) (from UniProt Q92673 82-2214)

- % sequence coverage [3]: 11%
- total peptide spectra [3]: 7 spectra
- unique peptide spectra [3]: 4 spectra
Substance: Sec61 alpha subunit isoform 1 (from UniProt P61619 1-476)

- % sequence coverage [1]: 23%
- total peptide spectra [1]: 3 spectra
- unique peptide spectra [1]: 3 spectra
Substance: proteasome, beta type 1 (from UniProt O09061 28-240)

- % sequence coverage [1]: 5%
- total peptide spectra [1]: 2 spectra
- unique peptide spectra [1]: 2 spectra
Substance: proteasome 26S, non-ATPase, 11 (from UniProt O00231 2-422)

- decrease of bound Hsp90 (ratio of Hsp90 to CFTR in the immunoprecipitate) after Aha1 dsRNA against scrambled control [4]: 50 to 60%
Substance: Hsp90

- % sequence coverage [1]: 17%
- total peptide spectra [1]: 5 spectra
- unique peptide spectra [1]: 2 spectra
Substance: proteasome, alpha type 2 (from UniProt P49722 2-234)

- % sequence coverage [2]: 5%
- total peptide spectra [2]: 2 spectra
- unique peptide spectra [2]: 2 spectra
Substance: flotillin 2 (from UniProt Q60634 2-428)

- % sequence coverage [1]: 24%
- total peptide spectra [1]: 3 spectra
- unique peptide spectra [1]: 3 spectra
Substance: proteasome, beta type, 3 (from UniProt P49720 2-205)

- % sequence coverage [7]: 34%
- total spectra [7]: 20 spectra
- unique spectra [7]: 10 spectra
- % sequence coverage [8]: 15%
- total spectra [8]: 15 spectra
- unique spectra [8]: 7 spectra
Substance: Aha1, activator of heat shock 90 kDa protein ATPase homolog 1 (from UniProt O95433 1-338)

- % sequence coverage [1]: 16%
- total peptide spectra [1]: 2 spectra
- unique peptide spectra [1]: 2 spectra
Substance: proteasome, beta type, 4 (from UniProt P28070 46-264)

- % sequence coverage [3]: 2%
- total peptide spectra [3]: 2 spectra
- unique peptide spectra [3]: 2 spectra
Substance: THR interactor 12 (from UniProt Q14669 2-1992)
